# Test results taken from paper PMC5888579.
# B1: NickInternal (dsDNA)
# DNA 1: TGACCGTGTTTGACGGTCGTGAGGAGGAAAGTTCCTCCTACGGCAG
# DNA 2: CTGCCGTAGGAGGAACTTTCCTCCTC
# DNA 3: ACGACCGTCAAACAACGGTCA
# modifications: 5' phosphate at nick; biotin; iCy3 internal in template
# Biological target: FEN1 (human, UniProt P39748 2-380)
# Assay: smFRET kinetics
# Chain of FEN1 (P39748 2-380): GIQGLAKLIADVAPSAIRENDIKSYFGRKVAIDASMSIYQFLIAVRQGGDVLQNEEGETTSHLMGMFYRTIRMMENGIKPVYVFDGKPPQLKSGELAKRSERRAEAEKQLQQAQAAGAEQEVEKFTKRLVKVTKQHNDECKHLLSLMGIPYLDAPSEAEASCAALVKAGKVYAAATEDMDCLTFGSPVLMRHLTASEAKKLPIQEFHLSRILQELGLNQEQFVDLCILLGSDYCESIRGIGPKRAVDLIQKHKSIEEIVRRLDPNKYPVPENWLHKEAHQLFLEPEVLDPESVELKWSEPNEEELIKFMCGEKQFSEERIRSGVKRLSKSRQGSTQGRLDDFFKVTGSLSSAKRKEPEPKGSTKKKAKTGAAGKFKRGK
binder,measurement,value
B1,Kd,62 ± 9 nM
